test: soluble on expression in E. coli; label from the status in PepcDB or PDB records

| Sequence | soluble on expression in E. coli |
| --- | --- |
| MDAYPEAEAPPQSIVELVPVLIAVTDGGLRVLTVAQGMLLPNGPLSPLRNSLQAGVKLWVAKQTSQPMGYVEQLYTFVDTHRRNEHGMPVLYVSYLGLVREAADSILHPDAKWQDCYGYFPWEDLRTDGGQRDAVVGRLRIWANSADTEEVRQKRLKRIHLCWGVEPENWSEEYVLQRYEMLYESGLIAEAAEPQANFDFALTGQPMRHDHRRVLATALSRLRAKIKYRPVIFELMPPEFTLLQLQNSVEAISGRLLHKQNFRRQIQQQNLIEPSDTGVSGSKGRPAQLCRFRDDVLPDRLISDIGLPLGSR | not soluble |
| MCHSGTFHLTAGESVEWVLTWAPSFEPHPPMPDYTRSLESTLSFWASWVEELPHQRLYDAEVRRSMLVLRALTDLQTGGIVAAPTTSLPEDFGGIRNWDYRYVWLRDSALTIEALVEYGFSQAALQWRTWLLRAIAGDPENLRIMYGLGGERHLPERELQHLRGYENSVPVRVGNGAAEQYQADVVGEVMVALETIRRAGCLEDEFSWGMQKAILDFQEANFDRKDQGIWEMRSEPQYFTHGRAMMWAGFDRGIKAIEEFNLDGPIERWRELRAKLREEIMTNGFNEEIQSFTQCYDNTQVDASLLQLAQIGFIGFDDPKMLSTVARIEQELLDAHGFLHRYHTDGSDGLAGDEYPFLICSFWLVEQYASSNRLDEAKEKMNRILAVQSPLGLLAEEYSTHHGRLAGNYPQAFSHIGLISAARAINFEEARNRLEHHHHHH | soluble |
| MNRMSLAALLSCLPLVAWADNPVKLDTPVSGWRAGDGSAANYRQVVNYPASSVNVAADQATTARIRGAIESQPKDRPATLVVNGVSMPLKVDADGSFDRPFAFPSGSNSVEVRNAAGQSRRVQFYHGGGGGEVPAKLRVLLSWDSDNTDLDLHLVTPDGDHVWYGNRSLANGATLDVDVTTGYGPEIIATPTPQKGPYLVYVNYFGGGYGSSEDGAEQAAQDLTTARITLVTEEGTPNEKQETFLVPMRKPGELTLVKRFSYP | not soluble |
| MSVEAAKNARELLLKEYRAVLSTHSKKWPGFPFGSVVPYCLDAEGRPLILISRIAQHTHNLQADPRCSMLVGERGAEDIQAVGRLTLLAEARQLAEEEVAAAAERYYRYFPESADYHRVHDFDFWVLQPVQWRFIGGFGAIHWLAAERVPLANPFAGEAERGMVEHMNSDHAAAIAHYVELAGLPAHAAAQLAGIDTEGFHLRIGQGLHWLPFPAACGNPGAVRQALVQLARAERWPTVEPEQG | soluble |
| MGSDKIHHHHHHMTTVLPLDPARYTPHLLHSAERMWPETNCYVDLWIEVLCVLGLPPEAMLGFTLTQDFEGDQFTFFKVPLEDLEALYGIRVTELAIFDRAEAHVAQQISRGRLCLVEMDSYFMPDTAGVGYRQHHGKTTVGVNRLDLAGRSMDYFHNGGFFRLEAEDFDGIWQLAAPETAPFLPYTEFAKFPETRPDETHLRAVAKRLFAFHFARRPQGNPFAGFAEVFPAQVEAIAERPFGYFHTYAFNTLRQFGANFELLASHLKWLAADDRYTNEIAEALRISELAKTVQFQLARAVTRKKFDPLKAALDPAIDAWDRLMTGLADKMA | not soluble |
| MGSDKIHHHHHHMTKRHTETKAYVKTALTTLLTEQSFETLTVSDLTKKAGINRGTFYLHYTDKFDMMNHFKNDTLDDLYRLLNQAEIYTDTRQVLNQTLSYLIEHREFITALATISYLKFPQLIKDFCYQFLTTITGFQDIVTNQYHIPYPYALEVYLASIESIISYWIANGYQETTEEVADIILKAVTLDN | not soluble |
| GSPQLRQVGQIIRVPARMAATLILEPAGRCCWDEPVRIAVRGLAPEQPVTLRASLRDEKGALFQAHARYRADTLGELDLERAPALGGSFAGLEPMGLLWALEPEKPLVRLVKRDVRTPLAVELEVLDGHDPDPGRLLCQTRHERYFLPPGVRREPVRVGRVRGTLFLPPEPGPFPGIVDMFGTGGGLLEYRASLLAGKGFAVMALAYYNYEDLPKTMETLHLEYFEEAMNYLLSHPEVKGPGVGLLGISKGGELCLSMASFLKGITAAVVINGSVANVGGTLRYKGETLPPVGVNRNRIKVTKDGYADIVDVLNSPLEGPDQKSFIPVERAESTFLFLVGQDDHNWKSEFYANEACKRLQAHGRRKPQIICYPETGHYIEPPYFPLCRASLHALVGSPIIWGGEPRAHAMAQVDAWKQLQTFFHKHLGGHEGTIPSKVLEHHHHHH | soluble |
| MNRKKLAAYGQEFEDDDEEGSSVSKKPTQIHEEIATDEKGKRRFHGAFTGGFSAGYWNTVGSKQGWVPQVFSSSRNERGEQIKQRAEDFMDAEDLGEYGIGNRSIKQTAAFGEGAGQKRKMAWERDTTSISTITQMFEDVVKPVSNSIGVRMLRSMGWREGRGIGLANVKQKQKRGGESSEAQFDREQASKVAPAYEFSNEDALVKQLTPLTGTHGIGYQGLRKTTVLNESYGRTTLALKSGKKNSKGIKGQAFGVGAFEEEDESVYSNYDLSQFDFSLDVAGASEESNLKTQKLVTAFELQPKRLNPRKFYAPPRVPPNFRGDHRPIPMDISKLPQMMKNDVKHMNAEQRAKFLGEDRVNALEIGGKSSKKPTERRSRWDIKANEVEKRDNERGGGEAEEDRDRRQRNRIEFPDEPMRQARFKEFLHYIRRGLPYPQPTDLTVWEWEWEKKEFESKLTSDERGMLPEVQSRAQPLAKTAIAAPIHEMMASKFVKEAGGDLKVGTKDEDKLAAVKMEMFGEKTRQSFDWYPDNLLAKRFNVPHPYPGSDTVGVPALQKTDWKRKDRLADIGGVSATLGLPNTANEIEMRERLLKSRAQRGAEEKKRNQSDDDDEKEYDDKDSDEEEENEAEPNNQKVDKAPKSFFDFIFGDGDGADSDESNSEDEEAEEKERQEILKKREEDLKRRREIVEKKEEENRKRVEKELKELENRDLLRVSKQQEDDDIQIIDETSASSFGPALPPSSKPVLSKTEVLKLLEKNMKKKKKDKKEKEKKKKSKKSKKSKKEKKTKRKHSSSSADDSGDNSDGWEEKK | not soluble |
| SNAKKVCVDTCVVIDGRITELIERGKLKDATIIIPEAVVSELEYQANMGREIGYKGIEELRKLIEKASEHNIKVEYYGERPTREEIFLAKSGEIDAMIRKVAKETNSILLTSDWIQYNLAKAQGIEAYFLEAAEEEVELVLD | soluble |
| MPVAVMADNAFSFRKLLDQCENQELEAPGGIATPPVYGQLLALYLLQNDMNNARYLWKRIPPAIKSANSELGGIWSVGQRIWQRDFPGIYTTINAHQWSETVQPIMEALRDATRRRAFALVSQAYTSIIADDFAAFVGLPVEEAVKGVLEQGWQADSTTRMVLPRKPAPGALDVSLNRFIPLSEPAPVPPIPNEQQLARLTDYVAFLEN | not soluble |
| DLVPQIIWTGSSDGFIDYYNKRWYEYTGFDGKAFGDKSWVPVMHPDDVQEVLDCWYGSVKKGTPYQIELRMKSAETGEYRWFLSKALPIKDKTGVITKWFGTCTDI | not soluble |
| MGSDKIHHHHHHMSATKIDAVYLDADVTAYKGNPFIEALPPLQESVNSAAALRSTSLFDASDLQKPRVVRAHSICRITNDFFQPLGSHMLLSERVSLMIRGGYVGRNPKTGDLQRHLQNGYERVQSGDLSSFRFEEAKSTAQSMLLIGCSGSGKTTSLARILDTYPQVIYHPTMNFEQVVYLKVDCSHNGSLKEICLNFFRALDKALGSNYEKKYGLKRNGIETMLALMAQIANAHAVGLLVIDEIQHLSRAKSGGPEAMLNFFVTMVNTIGVPVMLIGTPKAREIFEIDLRSARRGSGLGAIFWEPMKQGPNGKRNPEWAAFTDNLWKQQLLQSKDLVLTDDLRDLWYDLSQGVMDTVVKLFVLSQLRALALGKERLTPGLMKQVYKDELKPVHPMLEALRSGVPEKIAQYSDLMLPEMDKRLIQLQRDIAGMKVETPEELALKQLATDDERRIYLMLKDDYDSSLLVATVRKAFAENPKLTRPQLLPVILNWLSDTDNPVKPEQPKTQVKNTKPDQWDTLDWDDLRYISSQQQSAAAMHSALGTKGLLFDLRRRMT | not soluble |
| MGSDKIHHHHHHMTLSDPRFISLNQWLNCYFSDDVTPILISGDASFRRYFRVFAHDTSYIIADSPPALVPIAPFIALSSAYAAAGLTVPKVIASDADQGFMLLSDLGDTQLLSVLTDDNVADYYCRALALLPQVATVVESQDPVSGITQPLPLYDEAFVRRELGIFTEWLLARHLQLELGDEERTLVDESFDLLVKNALAQPKVGMHRDFHSRNLMLKDGGLCVIDFQDAVLGPVTYDAVSLLRDCYIRWPQAMVLELIQQHYQQVLESGHLPEGTSFRQYQSWFDLMGLQRHIKAAGIFARLYYRDNKPAYMADIPLTLAYIVDIARMYPELAPFAAWVESRVIPAFNLPLKQQDKQPGSSR | not soluble |

— the DeepSol protein solubility set
